In paper PMC10119233 (2022):

Target: Recombinant Fc-tagged hDLL4 (human, UniProt Q9NR61 27-529)
Assay: SPR

Sequence of Recombinant Fc-tagged hDLL4 (Q9NR61 27-529): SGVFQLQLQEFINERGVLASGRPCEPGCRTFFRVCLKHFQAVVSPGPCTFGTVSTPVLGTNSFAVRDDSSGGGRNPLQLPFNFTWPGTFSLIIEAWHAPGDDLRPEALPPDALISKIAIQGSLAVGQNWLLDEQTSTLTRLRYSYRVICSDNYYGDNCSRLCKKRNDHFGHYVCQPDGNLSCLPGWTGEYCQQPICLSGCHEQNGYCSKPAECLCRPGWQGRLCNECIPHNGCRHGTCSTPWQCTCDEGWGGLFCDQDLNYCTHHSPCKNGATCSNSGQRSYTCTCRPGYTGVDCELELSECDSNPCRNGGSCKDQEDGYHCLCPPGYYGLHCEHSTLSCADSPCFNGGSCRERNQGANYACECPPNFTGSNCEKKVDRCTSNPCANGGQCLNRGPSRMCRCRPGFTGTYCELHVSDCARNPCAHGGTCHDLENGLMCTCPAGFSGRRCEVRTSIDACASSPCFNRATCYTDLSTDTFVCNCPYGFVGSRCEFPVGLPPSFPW

koff: 0.0099 s⁻¹
B1: N4_(10-14)Fc, Notch4 EGF-like repeats 10–14 fused to human IgG Fc (Fc fusion)
chain: RGLLCGSFPEPCANGGTCLSLSLGQGTCQCAPGFLGETCQFPDPCQNAQLCQNGGSCQALLPAPLGLPSSPSPLTPSFLCTCLPGFTGERCQAKLEDPCPPSFCSKRGRCHIQASGRPQCSCMPGWTGEQCQLRDFCSANPCVNGGVCLATYPQIQCHCPPGFEGHACERDVNECFQDPGPCPKGTSCHNTLGSFQCLCPVGQEGPRCELRAGPCPPRGCSNGGTCQLMPEKDSTFHLCLCPPGFIGPDCEVNPDNCVSHQCQNGGTCQDGLDTYTCLCPETWTGWDCSEDVDECETQGPPHCRNGGTCQNSAGSFHCVCVSGWGGTSCEENLDDCIAATCAPGSTCIDRVGSFSCLCPPGRTGLLCHLEDMCLSQPCHGDAQCSTNPLTGSTLCLCQPGYSGPTCHQDLDECLMAQQGPSPCEHGGSCLNTPGSFNCLCPPGYTGSRCEADHNECLSQPCHPGSTCLDLLATFHCLCPPGLEGQLCEVETNECASAPCLNHADCHDLLNGFQCICLPGFSGTRCEEDIDECRSSPCANGGQCQDQPGAFHCKCLPGFEGPRCQTEVDECLSDPCPVGASCLDLPGAFFCLCPSGFTGQLCEVPLCAPNLCQPKQICKDQKDKANCLCPDGSPGCAPPEDNCTCHHGHCQRSSCVCDVGWTGPECEAELGGCISAPCAHGGTCYPQPSGYNCTCPTGYTGPTCSEEMTACHSGPCLNGGSCNPSPGGYYCTCPPSHTGPQCQTSTDYCVSAPCFNGGTCVNRPGTFSCLCAMGFQGPRCEGKLRPSCADSPCRNRATCQDSPQGPRCLCPTGYTGGSCQTLMDLCAQKPCPRNSHCLQTGPSFHCLCLQGWTGPLCNLPLSSCQKAALSQGIDVSSLCHNGGLCVDSGPSYFCHCPPGFQGSLCQDHVNPCESRPCQNGATCMAQPSGYLCQCAPGYDGQNCSKELDACQSQPCHNHGTCTPKPGGFHCACPPGFVGLRCEGDVDECLDQPCHPTGTAACHSLANAFYCQCLPGHTGQWCEVEIDPCHSQPCFHGGTCEATAGSPLGFICHCPKGFEGPTCSHRAPSCGFHHCHHGGLCLPSPKPGFPPRCACLSGYGGPDCLTPPAPKGCGPPSPCLYNGSCSETTGLGGPGFRCSCPHSSPGPRCQKPGAKGCEGRSGDGACDAGCSGPGGNWDGGDCSLGVPDPWKGCPSHSRCWLLFRDGQCHPQCDSEECLFDGYDCETPPACTPAYDQYCHDHFHNGHCEKGCNTAECGWDGGDCRPEDGDPEWGPSLALLVVLSPPALDQQLFALARVLSLTLRVGLWVRKDRDGRDMVYPYPGARAEEKLGGTRDPTYQERAAPQTQPLGKETDSLSAGFVVVMGVDLSRCGPDHPASRCPWDPGLLLRFLAAMAAVGALEPLLPGPLLAVHPHAGTAPPANQLPWPVLCSPVAGVILLALGALLVLQLIRRRRREHGALWLPPGFTRRPRTQSAPHRRRPPLGEDSIGLKALKPKAEVDEDGVVMCSGPEEGEEVGQAEETGPPSTCQLWSLSGGCGALPQAAMLTPPQESEMEAPDLDTRGPDGVTPLMSAVCCGEVQSGTFQGAWLGCPEPWEPLLDGGACPQAHTVGTGETPLHLAARFSRPTAARRLLEAGANPNQPDRAGRTPLHAAVAADAREVCQLLLRSRQTAVDARTEDGTTPLMLAARLAVEDLVEELIAAQADVGARDKWGKTALHWAAAVNNARAARSLLQAGADKDAQDNREQTPLFLAAREGAVEVAQLLLGLGAARELRDQAGLAPADVAHQRNHWDLLTLLEGAGPPEARHKATPGREAGPFPRARTVSVSVPPHGGGALPRCRTLSAGAGPRGGGACLQARTWSVDLAARGGGAYSHCRSLSGVGAGGGPTPRGRRFSAGMRGPRPNPAIMRGRYGVAAGRGGRVSTDDWPCDWVALGACGSASNIPIPPPCLTPSPERGSPQLDCGPPALQEMPINQGGEGKK
